From US20190338048A1 come the findings set out here.

Test [1] concerns the target CR8071 lambda light chain L1 of design 2830 (E124K_Y178R). The test is described as follows: SMCA: H1, L1, H2, L2 co-expressed in CHO-3E7.
Test [2] addresses CR8071 lambda light chain L1 (S180E), designs 2816 and 2827. In words: SMCA, System C, LC-MS.
For test [3] the target is unchanged. In words: SMCA, System C.
Test [4] deals with CR8071 lambda light chain L1, design 2892 (S176K_Y178K). The test is described as follows: SMCA: H1,L1,H2,L2 co-expressed, protein A, LC-MS.
Test [5] has as its target CR8071 lambda light chain L1, design 2994 (E124Q_T131K). In words: SMCA: H1,L1,H2,L2 co-expressed, protein A, LC-MS.
In test [6] the target is CR8071 lambda light chain L1, design 3025 (E124Q_T131R). In words: SMCA: H1,L1,H2,L2 co-expressed, protein A, LC-MS.
Test [7] concerns the target CR8071 lambda light chain L1, design 3122 (V133D_Y178T). The test is described as follows: SMCA: H1,L1,H2,L2 co-expressed, protein A, LC-MS.
Test [8] addresses CR8071 lambda light chain L1, design 3878 (K129T_S180E). In words: SMCA: H1,L1,H2,L2 co-expressed, protein A, LC-MS.
Test [9] has as its target His-tagged Influenza B Hemagglutinin (B/Brisbane/60/2008) (Influenza B (B/Brisbane/60/2008)).
Test [10] deals with Pertuzumab kappa light chain L135A (L2), N-terminal HA tag. In words: LCCA, SPR of light chain tags.
In test [11] the target is Pertuzumab kappa light chain, wild type (L2), N-terminal HA tag. The test is described as follows: LCCA, SPR of light chain tags.
In test [12] the target is CAT-2200 lambda light chain T116F_S176F (L1), N-terminal FLAG tag. In words: LCCA, SPR of light chain tags.
The target in test [13] is Pertuzumab kappa light chain L135A (L2), N-terminal HA tag. The test is described as follows: LCCA, SPR of light chain tags. The source holds these as a separate data set.
Test [14] deals with Pertuzumab kappa light chain L135A_T178F (L2), N-terminal HA tag. In words: LCCA, SPR of light chain tags.
For test [15], the target named is Pertuzumab kappa light chain T178F (L2), N-terminal HA tag. The test is described as follows: LCCA, SPR of light chain tags.
Test [16] has as its target Pertuzumab kappa light chain, wild type (L2), N-terminal HA tag. The test is described as follows: LCCA, SPR of light chain tags. The source holds these as a separate data set.
Test [17] addresses Pertuzumab light chain (kappa) V133G_S176D_T180E, HA-tagged. In words: LCCA.
Test [18] concerns the target Pertuzumab light chain (kappa) V133G_S176D_T178E, HA-tagged. The test is described as follows: LCCA.
Test [19] deals with Pertuzumab light chain (kappa) V133G_S176D_T180E, HA-tagged. The test is described as follows: LCCA. The source holds these as a separate data set.
Test [20] deals with Pertuzumab light chain (kappa) V133G_S176D_T178E, HA-tagged. The test is described as follows: LCCA. This is another data set of the same source.
Test [21] deals with Pertuzumab light chain (kappa) V133G_S176D_T180E, HA-tagged. The test is described as follows: LCCA. This is another data set of the same source.
Test [22] addresses Pertuzumab light chain (kappa) Q124E_V133D, HA-tagged. In words: LCCA.
The target is the same in test [23]. The test is described as follows: LCCA. This is another data set of the same source.
Test [24] addresses CAT-2200 light chain (lambda) E124Q_T131K, FLAG-tagged. In words: LCCA.
In test [25] the target is CAT-2200 light chain (lambda) E124Q_T131R, FLAG-tagged. The test is described as follows: LCCA.
Test [26] concerns the target SGN-CD19a kappa light chain L2 of design 2830 (T178E_T180E). The test is described as follows: SMCA: H1, L1, H2, L2 co-expressed in CHO-3E7.
The target in test [27] is SGN-CD19a kappa light chain L2, design 3025 (S131D_V133G_T178F). In words: SMCA: H1,L1,H2,L2 co-expressed, protein A, LC-MS.
The target is the same in test [28]. In words: SMCA: H1,L1,H2,L2 co-expressed, protein A, LC-MS. This is another data set of the same source.
Test [29] concerns the target SGN-CD19a kappa light chain L2, design 3122 (S176K_T178K). The test is described as follows: SMCA: H1,L1,H2,L2 co-expressed, protein A, LC-MS.
Test [30] has the same target. In words: SMCA: H1,L1,H2,L2 co-expressed, protein A, LC-MS. This is another data set of the same source.
Test [31] deals with SGN-CD19a kappa light chain L2, design 3878 (Q124R_Q160K_T178R). In words: SMCA: H1,L1,H2,L2 co-expressed, protein A, LC-MS.
The target is the same in test [32]. The test is described as follows: SMCA: H1,L1,H2,L2 co-expressed, protein A, LC-MS. This is another data set of the same source.
Test [33] addresses SGN-CD19a kappa light chain L2, designs 2892 and 2994 (Q124E_V133D). In words: SMCA: H1,L1,H2,L2 co-expressed, protein A, LC-MS.
Test [34] shares this target. In words: SMCA: H1,L1,H2,L2 co-expressed, protein A, LC-MS. The source holds these as a separate data set.
The target is the same in test [35]. In words: SMCA: H1,L1,H2,L2 co-expressed, protein A, LC-MS. This is another data set of the same source.
For test [36] the target is unchanged. The test is described as follows: SMCA: H1,L1,H2,L2 co-expressed, protein A, LC-MS. This is another data set of the same source.

One may read the Kd as a measure of binding affinity in units of concentration.

Where “and” joins values, the source holds several entries; their conditions need not be identical. Equal entries are not always repeated. Where two headings read alike, the source gives them in different places.

Take “CR8071 heavy chain H1 of design 2830 (L143E_K145T_Q179E), full-length with heterodimeric IgG1 Fc”: in test [1], the % H1L1 Pairing was determined as 28% and the Change in % H1L1 Pairing with respect to wild type is -20.4%.
As for “CR8071 heavy chain H1, design 2816 (Q179K)”, the Change in % H1L1 Pairing with respect to wild type in test [2] was 17%. The same substance yielded a % H1L1 Pairing in test [3] of 99.3%.
In the case of “CR8071 heavy chain H1, design 2827 (S186R)”, the Change in % H1L1 Pairing with respect to wild type in test [2] is 15.9%. The substance further had a % H1L1 Pairing in [3] of 98.2%.
Consider “CR8071 heavy chain H1, design 2892 (K145T_V177D_S188D)”, for which, in test [4], the % H1L1 Pairing was found to be 41.5% and the Change in % H1L1 Pairing with respect to wild type was -6.9%.
Take “CR8071 heavy chain H1, design 2994 (L143E_K145T_Q179E)”: in test [5], the % H1L1 Pairing stood at 26.3% and the Change in % H1L1 Pairing with respect to wild type was -22.1%.
For the substance “CR8071 heavy chain H1, design 3025 (L143D_K145T)”, in test [6], the % H1L1 Pairing came to 43.9% and the Change in % H1L1 Pairing with respect to wild type is -4.5%.
As to “CR8071 heavy chain H1, design 3122 (S186K_S188T)”, in test [7], the % H1L1 Pairing was 65.8% and the Change in % H1L1 Pairing with respect to wild type was -16.5%.
“CR8071 heavy chain H1, design 3878 (Q179K)”: in [8], the % H1L1 Pairing was found to be 99.3% and the Change in % H1L1 Pairing with respect to wild type stood at 17%.
Turning to “CR8071 wild type one-armed antibody (OAA), FLAG-tagged light chain”, in [9], the Kd was found to be 0.332 nM. That is a sub-nanomolar value.
Regarding “CR8071 wild type one-armed antibody (OAA), no tags”, in test [9], the Kd was 0.385 nM and 0.379 nM.
For “Pertuzumab Fab heavy chain V190F (H2), ABD2-His6 tagged”, the H2L2:H2L1 normalized median ratio in [10] stood at 42%; in test [11] it was 65%; in test [12], 29%; in test [13] it was 44%; in test [14], 60%; in test [15], 71%. Moreover, the H2L2:H2L1 normalized median ratio in test [16] worked out at 62%. Also, the H2L2:H2L1 normalized median scalar value ln(r1/f1) in test [10] was -0.34; in test [11] it was 0.6; in test [13], -0.26; in [14], 0.41; in test [15], 0.9; in test [16], 0.47.
On to “Pertuzumab heavy chain Fab construct L124R_Q179K”, for which the H2L2:H2L1 normalized median scalar value ln(r1/f1) in test [17] was 0.63; in [18], 0.77; in [19] it was 0.95; in test [20] it was 0.69; in test [21], 0.97.
“Pertuzumab heavy chain Fab construct L124R_S186R”: the H2L2:H2L1 normalized median scalar value ln(r1/f1) in [17] was found to be 1.21; in test [18], 1.04; in test [19], 1.5; in test [20], 1.18; in test [21], 1.47.
Consider “Pertuzumab heavy chain Fab construct L143K”, for which the H2L2:H2L1 normalized median ratio, H2L2 share in test [22] was found to be 92%; in [23], 91%. Moreover, the H2L2:H2L1 normalized median scalar value ln(r1/f1) in test [22] was found to be 2.48; in test [23], 2.3. For the same substance, the H2L2:H2L1 normalized median ratio (H2L1 share) in test [24] worked out at 8%; in [25] it was 9%.
In the case of “Pertuzumab heavy chain Fab construct L143R”, in test [23], the H2L2:H2L1 normalized median ratio, H2L2 share was 96% and the H2L2:H2L1 normalized median scalar value ln(r1/f1) amounted to 3.06. In addition, the H2L2:H2L1 normalized median ratio (H2L1 share) in test [25] was found to be 4%.
As to “SGN-CD19a heavy chain H2 of design 2830 (S186R), full-length with heterodimeric IgG1 Fc”, in test [26], the % H2L2 Pairing amounted to 99.6% and the Change in % H2L2 Pairing with respect to wild type worked out at 20%.
On to “SGN-CD19a heavy chain H2, design 3025 (S188K)”, for which, in test [27], the % H2L2 Pairing is 87.9% and the Change in % H2L2 Pairing with respect to wild type stood at 33.7%. Besides, in test [28], the % H2L2 Pairing amounted to 99.7% and the Change in % H2L2 Pairing with respect to wild type was determined as 20.1%.
Take “SGN-CD19a heavy chain H2, design 3122 (K145T_V177D_S188D)”: in test [29], the % H2L2 Pairing stood at 89.7% and the Change in % H2L2 Pairing with respect to wild type was found to be 52.1%. In addition, in [30], the % H2L2 Pairing amounted to 99.8% and the Change in % H2L2 Pairing with respect to wild type was 39.9%.
On to “SGN-CD19a heavy chain H2, design 3878 (L143E_K145T_S188L)”, for which, in test [31], the % H2L2 Pairing came out at 28.7% and the Change in % H2L2 Pairing with respect to wild type is -8.9%. Besides, in test [32], the % H2L2 Pairing is 67.4% and the Change in % H2L2 Pairing with respect to wild type was 7.5%.
Take “SGN-CD19a heavy chain H2, designs 2892 and 2994 (L143K)”: the % H2L2 Pairing amounted to 94.3% in test [33], 99.6% in [34], 99.2% in test [35] and 99.7% in test [36]. The Change in % H2L2 Pairing with respect to wild type turned out to be 40.1% in test [33], 20% in [34], 45% in [35] and 20.1% in [36].
